Data reported in patent publication US9428783B2, “DNA encoding dipeptide-synthesizing enzyme (variants), bacterium belonging to the genus Escherichia, and methods for producing dipeptides using thereof” (Ajinomoto Co., Inc., priority 2012, dated 2016).
Each block holds one molecule with its values, some of them ahead of it.

Experiments:
Format in all cases: biochemical
[1] = Asp-Phe synthesizing activity of MBP fused His6-tagged DES; conditions: 160 μg DES, 100 mM L-Asp, 100 mM L-Phe, 10 mM ATP, pH 9.0, 37° C., 15 hours
Method: Dipeptides synthesized by MBP fused His6-tagged DES were determined using HPLC analysis of reaction mixture of total volume of 400 μL, which contained:
Reactions were carried out at 37° C. for 15 hours. Then the reaction mixture, into which 10 μl of 1 M EDTA, pH9.0 was added to stop the enzymatic reaction, was subjected to HPLC analysis. The conditions were as described in Example 4. As a result, DES catalyzes formation of 0.30 mM Asp-Phe.

[2] = Preliminary analysis of substrate specificity by TLC; conditions: 4 μg enzyme, 10 mM each amino acid, 10 mM ATP, pH 8.0, 32° C., 15 hours
From the text: The substrate specificity of BBR47_51900 and Staur_4851 was studied in the reaction mixture containing the enzyme and canonical L-amino acids such as L-alanine, L-arginine, L-asparagine, L-aspartic acid, L-cysteine, glycine, L-glutamic acid, L-glutamine, L-histidine, L-isoleucine, L-leucine, L-lysine, L-methionine, L-phenylalanine, L-proline, L-serine, L-threonine, L-tryptophan, L-tyrosine, and L-valine, or salts thereof, of the same or two different kinds. The composition of the reaction mixture of total volume of 50 μL was as follows unless otherwise noted:
Reactions were carried out at 32° C. for 15 hours. 1-2 μL of reaction mixture was subjected to thin layer chromatography (TLC) analysis using as mobile phase the mixture of 2-propanol:acetone:250 mM ammonia:H2O as 100:100:12:28. […] Detection was performed at 540 nm. The new spots on TLC-plates were detected after developing the reaction mixtures, which contained: […]

[3] = HPLC determination of dipeptides synthesized by the enzymes; conditions: 160 μg enzyme, 10 mM substrates, 10 mM ATP, pH 9.0, 32° C., 15 hours
Method: Dipeptides synthesized by BBR47_51900 and Staur_4851 were determined using HPLC analysis of reaction mixtures of total volume of 400 μL, which contained:
Reactions were carried out at 32° C. for 15 hours. Then […] of reaction mixture was filtered through the Amicon Ultra-0.5 mL, 3K Centrifugal Filters (Millipore, #UFC500396) and subjected to HPLC analysis.
The conditions were as follows: • Equipment: HITACHI L-2000 series. • Column: Inertsil ODS-3 4.6×250 mm, […] (GL Sciences Inc.). • Temperature: 40° C. • Buffers:
A (for mixture L-Asp/L-Val and L-Glu/L-Val): 0.1 M KH2PO4 (pH 2.2)+5 mM octanesulfonate, sodium salt: CH3CN as 4:1 (v/v),
B (for mixture L-Asp/L-Phe): 0.1 M KH2PO4 (pH 2.2)+5 mM octanesulfonate, sodium salt: CH3CN as 7:3 (v/v),
C (for mixture L-Asp/L-PheOMe, L-Asp/L-Trp, and L-Val/L-Val): 0.1 M KH2PO4 (pH 2.2)+5 mM octanesulfonate, sodium salt:CH3CN as 3:2 (v/v),
D (for mixture L-Phe/L-Phe): 0.1 M KH2PO4 (pH 2.2)+5 mM octanesulfonate, sodium salt: CH3CN as 1:1 (v/v). • Gradient profile: isocratic. • Flow rate: 1.5 mL/min. • Injection volume: 10 μL. • Detection: UV 210 nm.
Solution of αGlu-Val, γGlu-Val, αAsp-Val (10 mM each) and αAsp-Phe, βAsp-Phe (5 mM each) were prepared for HPLC analysis. The concentration of a dipeptide formed was determined using corresponding calibration curves. Each solution with standard sample was diluted to 50-folds or 100-folds for LC-QTOF/MS/MS analysis (Example 5).

[4] = LC-QTOF/MS/MS determination of dipeptides synthesized; conditions: reaction mixtures of Example 4
From the text: Samples of reaction mixtures and standard solutions obtained as described in Example 4 were subjected to LC-QTOF/MS/MS analysis.
The conditions were as follows:
Equipment: LC (Agilent1200SL), MS (Micromass Q-TOF Premier)
Column: Develosil C30 2.0×250 mm, 3 μm (Nomura Chemical).
Buffers: • A: H2O (0.025% Formic acid), • B: CH3CN (0.025% Formic acid).

[5] = Enzymatic production of Asp-Phe using ATP regeneration system; conditions: 0.15 U enzyme, 100 mM L-AspNa, 100 mM L-Phe, 37° C.
Method: The product yield of Asp-Phe was studied in the reaction mixture of BBR47_51900 and Staur_4851 containing phosphoenolpyruvate and pyruvate kinase for regeneration of ATP in order to prevent highly concentrated ATP from inhibiting the enzyme reaction. The composition of the reaction mixture of total volume of 1 ml was as follows.
Reactions were carried out at 37° C. for 1-48 hours. 100 μL out of the 1 mL reaction mixture was sampled at each reaction time. Each reaction mixture, into which 10 μL of 1 M EDTA (pH9.0) was added to stop the reaction, was subjected to HPLC analysis. The condition was as described in Example 4. As a result, BBR47_51900 and Staur_4851 could produce Asp-Phe in the ATP regeneration system (Table 9).

B1: DES: pyridoxal-phosphate dependent enzyme from Desmospora sp. 8437, SEQ ID NO: 6; tested as MBP fused His6-tagged DES (protein)
chain: MKKKLLFVEGNTTGTGILALEKARKLGYEPVFLTQEASRYDGLPEAKCRVHVTVTDSIHELKRCVSQEKAEAVAGILTTSDYYLEISAKLVQELGLTGNSPQAIHLCRNKALYREKLRSKSVPQPNFHIIRSMEDLRETRESVPLPCLVKPADDSGSNNVRLCFSWGEVEQLTSKILKIERNARGQKTSQTVLLEEYIEGPEYSVEMFSWQGKSTCIGITEKQLTGYPYFVESGHVFPAVLPTDVQQEIEKTVKQSLEAVHFQFGASHSEVKWTPNGCVMIETNARLAGGMIPELVRHSTGVDLIEQQILCAAGVAPHWKQVVPTGCSGIHFIVAAEAGRLSSVDNLEAVRKLPGVEEMMVKAQVGQAVQPPKNFSDRLGHVIVSGKSYEEVVERLHKISNMISLKIS
modifications: MBP fusion, His6 tag; Desmospora sp. 8437
Asp-Phe formed [1]: 0.30 mM

Dipeptides (mM) Asp-Phe [3]: 1.22 mM | Dipeptides (mM) Asp-PheOMe [3]: 0.03 mM | Dipeptides (mM) Asp-Trp [3]: 0.13 mM | Dipeptides (mM) Asp-Val [3]: 3.9 mM | Dipeptides (mM) Glu-Val [3]: 1.48 mM
B2: BBR47_51900: L-amino acid α-ligase (hypothetical protein) from Brevibacillus brevis NBRC 100599, SEQ ID NO: 2 (protein)
chain: MNKHFLFVEANTTGTGMLAMKKARKLGFTPVFFTEKPERYHGLNELECHVVVTDTNSQAELTDSVAQVSKEGREIAGIMSTSDYYLESVAKLARKFGWISNSLEAIEACRNKAIFREKLQRHQVSQPTFLAISSMEQLLEARSSISLPCVVKPADDSGSNNVRLCFSWDEVEHMAAEILAIKYNARGQETARTVLLEQYAEGPEFSVETFSWQGQCFVIGITQKRLTGYPFFVEAGHIFPAPLSVEEKQEIERTVERALAAVKYQFGAAHTEVKWTSAGCVVIEVNARLAGGMIPELVRRSTGIDLLLQQIRCAAGLEPELSQTIEEQRCAGIHFLVSESQGTFGGIKGMDTVRNLPGIAEVAIHAKIGQNVQPPQNFSHRLGYVIVEGKHYSETAELIEQVKDSLSVQVGQQLESGV
modifications: Brevibacillus brevis NBRC 100599
L-amino acid pairs giving new spots on TLC-plates (ligation) [2]: L-Glu/L-Glu, or L-Glu/L-Asp, or L-Glu/L-Val, or L-Glu/L-Ile, or L-Asp/L-Ile, or L-Asp/L-Val | Dipeptides whose formation is catalyzed (LC-QTOF/MS/MS) [4]: αAsp-Phe, αAsp-Val, and αGlu-Val | Asp-Phe ([5]; 1 hr): 7 mM | Asp-Phe ([5]; 2 hr): 13 mM | Asp-Phe ([5]; 4 hr): 24 mM | Asp-Phe ([5]; 8 hr): 40 mM | Asp-Phe ([5]; 24 hr): 68 mM | Asp-Phe ([5]; 48 hr): 74 mM
